{
  "source": "patent US20220003782A1",
  "about": "(METAFORA BIOSYSTEMS, published 2022)",
  "key": {"CAT1/SLC7A1 [1]": {"target": "CAT1/SLC7A1 (UniProt P30825)", "sequence (P30825 whole entry)": "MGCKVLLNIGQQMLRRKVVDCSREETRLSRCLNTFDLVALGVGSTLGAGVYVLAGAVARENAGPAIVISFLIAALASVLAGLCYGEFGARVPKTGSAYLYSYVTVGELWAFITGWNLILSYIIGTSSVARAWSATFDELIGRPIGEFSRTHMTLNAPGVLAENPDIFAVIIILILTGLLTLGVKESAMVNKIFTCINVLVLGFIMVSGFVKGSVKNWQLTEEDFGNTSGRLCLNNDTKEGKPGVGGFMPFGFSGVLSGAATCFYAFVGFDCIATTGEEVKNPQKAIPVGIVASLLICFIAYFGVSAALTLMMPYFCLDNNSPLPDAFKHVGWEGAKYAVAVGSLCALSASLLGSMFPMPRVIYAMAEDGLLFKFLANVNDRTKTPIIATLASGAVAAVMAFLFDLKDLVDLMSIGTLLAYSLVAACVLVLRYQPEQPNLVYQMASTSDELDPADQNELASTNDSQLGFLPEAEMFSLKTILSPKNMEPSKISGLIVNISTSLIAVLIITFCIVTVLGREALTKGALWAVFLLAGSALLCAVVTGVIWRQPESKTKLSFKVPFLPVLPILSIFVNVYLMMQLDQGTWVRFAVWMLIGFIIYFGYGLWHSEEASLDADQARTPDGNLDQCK", "experiment": "flow cytometry, HEK293T cells with control siRNA siLUC (endogenous receptor), saturating ligand, Alexa488 anti-mouse IgG1"}, "CAT1/SLC7A1 [2]": {"target": "CAT1/SLC7A1 (UniProt P30825)", "experiment": "flow cytometry, HEK293T cells with siSMVT A (endogenous receptor), saturating ligand, Alexa488 anti-mouse IgG1"}, "XPR1/SLC53A1 [3]": {"target": "XPR1/SLC53A1", "sequence (Q9UH99 whole entry)": "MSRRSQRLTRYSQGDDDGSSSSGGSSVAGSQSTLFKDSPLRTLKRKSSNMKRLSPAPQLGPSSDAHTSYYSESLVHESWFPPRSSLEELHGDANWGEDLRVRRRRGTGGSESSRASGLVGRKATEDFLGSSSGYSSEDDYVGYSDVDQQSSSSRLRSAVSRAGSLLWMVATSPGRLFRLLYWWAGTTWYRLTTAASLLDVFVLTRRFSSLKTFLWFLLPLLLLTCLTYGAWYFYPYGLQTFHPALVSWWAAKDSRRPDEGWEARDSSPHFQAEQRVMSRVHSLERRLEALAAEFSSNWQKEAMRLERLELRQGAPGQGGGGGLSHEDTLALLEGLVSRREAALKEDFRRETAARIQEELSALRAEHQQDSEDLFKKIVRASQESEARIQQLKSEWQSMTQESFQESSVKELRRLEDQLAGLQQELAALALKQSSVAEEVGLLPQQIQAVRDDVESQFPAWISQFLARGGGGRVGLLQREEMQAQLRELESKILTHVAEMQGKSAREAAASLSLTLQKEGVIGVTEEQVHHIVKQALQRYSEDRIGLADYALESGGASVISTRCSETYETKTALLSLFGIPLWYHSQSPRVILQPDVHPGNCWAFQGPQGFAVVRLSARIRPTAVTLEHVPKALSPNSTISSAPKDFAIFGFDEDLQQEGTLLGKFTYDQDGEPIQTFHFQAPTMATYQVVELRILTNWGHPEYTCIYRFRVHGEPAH", "experiment": "flow cytometry, HEK293T cells with control siRNA siLUC (endogenous receptor), saturating ligand, Alexa488 anti-mouse IgG1"}, "XPR1/SLC53A1 [4]": {"target": "XPR1/SLC53A1", "experiment": "flow cytometry, HEK293T cells with siSMVT A (endogenous receptor), saturating ligand, Alexa488 anti-mouse IgG1"}, "[5]": {"target": "GLUT1/SLC2A1 (glucose transporter type 1) (UniProt P11166)", "sequence (P11166 whole entry)": "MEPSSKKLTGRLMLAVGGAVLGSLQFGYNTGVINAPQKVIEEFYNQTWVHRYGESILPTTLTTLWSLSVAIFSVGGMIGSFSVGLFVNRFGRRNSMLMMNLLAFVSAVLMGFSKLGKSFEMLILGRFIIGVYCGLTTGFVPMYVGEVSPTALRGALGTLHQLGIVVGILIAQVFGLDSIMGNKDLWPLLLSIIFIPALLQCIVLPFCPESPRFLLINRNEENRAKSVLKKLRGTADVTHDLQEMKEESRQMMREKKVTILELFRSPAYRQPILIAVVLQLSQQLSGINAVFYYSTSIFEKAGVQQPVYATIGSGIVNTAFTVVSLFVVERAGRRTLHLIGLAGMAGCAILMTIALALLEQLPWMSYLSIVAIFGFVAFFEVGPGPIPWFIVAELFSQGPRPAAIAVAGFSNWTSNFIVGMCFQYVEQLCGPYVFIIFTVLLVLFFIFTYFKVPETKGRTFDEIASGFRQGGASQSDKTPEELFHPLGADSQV", "experiment": "flow cytometry, HEK293T cells with control siRNA siLUC (endogenous receptor), saturating ligand, Alexa488 anti-mouse IgG1"}, "[6]": {"target": "GLUT1/SLC2A1 (glucose transporter type 1) (UniProt P11166)", "experiment": "flow cytometry, HEK293T cells with siSMVT A (endogenous receptor), saturating ligand, Alexa488 anti-mouse IgG1"}, "[7]": {"target": "T1, sodium-dependent multivitamin transporter / solute carrier family 5 member 6 (SMVT/SLC5A6) (human, UniProt Q9Y289 1-635)", "T1 construct": "also called SLC5A6/SMVT", "T1 sequence": "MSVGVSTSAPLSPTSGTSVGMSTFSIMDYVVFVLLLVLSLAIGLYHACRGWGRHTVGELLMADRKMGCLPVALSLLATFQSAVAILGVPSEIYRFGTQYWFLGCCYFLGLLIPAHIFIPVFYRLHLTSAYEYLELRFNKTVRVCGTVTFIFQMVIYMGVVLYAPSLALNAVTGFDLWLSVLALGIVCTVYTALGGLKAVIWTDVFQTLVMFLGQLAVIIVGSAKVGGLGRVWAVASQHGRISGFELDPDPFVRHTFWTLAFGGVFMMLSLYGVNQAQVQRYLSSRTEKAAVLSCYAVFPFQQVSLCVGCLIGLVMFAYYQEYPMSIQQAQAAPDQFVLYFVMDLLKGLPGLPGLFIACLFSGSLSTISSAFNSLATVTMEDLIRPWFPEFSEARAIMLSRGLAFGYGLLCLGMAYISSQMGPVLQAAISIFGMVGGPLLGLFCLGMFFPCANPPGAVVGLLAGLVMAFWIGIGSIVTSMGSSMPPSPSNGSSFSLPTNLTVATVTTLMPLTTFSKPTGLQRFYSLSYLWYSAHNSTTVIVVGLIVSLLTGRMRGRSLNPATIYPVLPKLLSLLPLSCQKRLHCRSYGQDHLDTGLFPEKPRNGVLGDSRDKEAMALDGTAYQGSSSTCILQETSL", "experiment": "flow cytometry on HEK293T cells, siSMVT A against siLUC control"}},
  "data": [
    {"molecule": "RBD derived from the bovine leukemia virus (BLV), fusion protein with mFC (Fc fusion)", "values": [
      {"measurement": "relative specific binding (delta of the geometric mean of the fluorescence intensity)", "setting": "CAT1/SLC7A1 [1]", "value": 110},
      {"measurement": "relative specific binding (delta of the geometric mean of the fluorescence intensity)", "setting": "CAT1/SLC7A1 [2]", "value": 110}
    ]},
    {"molecule": "RBD from a xenotropic murine retrovirus (XRBD), fusion protein with mFC (Fc fusion)", "values": [
      {"measurement": "relative specific binding (delta of the geometric mean of the fluorescence intensity)", "setting": "XPR1/SLC53A1 [3]", "value": 12.6},
      {"measurement": "relative specific binding (delta of the geometric mean of the fluorescence intensity)", "setting": "XPR1/SLC53A1 [4]", "value": 14.6}
    ]},
    {"molecule": "human T-cell leukemia virus type 2 (HTLV2)-RBD, fusion protein with mFC (Fc fusion)", "values": [
      {"measurement": "relative specific binding (delta of the geometric mean of the fluorescence intensity)", "setting": "[5]", "value": 18.3},
      {"measurement": "relative specific binding (delta of the geometric mean of the fluorescence intensity)", "setting": "[6]", "value": 21.3}
    ]},
    {"molecule": "PERV-B RBD ligand fused to a mouse Fc fragment (SEQ ID NO: 13) (Fc fusion) KRLIDSSNPHRPLSLTWLIIDPDTGVTVNSTRGVAPRGTWWPELHFCLRLINPAVKSTPPNLVRSYGFYCCPGTEKEKYCGGSEESFCRRWSCVTSNDGDWKWPISLQDRVKFSFVNSGPGKYKVMKLYKDKSCSPSDLDYLKISFTEKGKQENIQKWINGMSWGIVFYKYGGGAGSTLTIRLRIEAGTEPPVAVGSVDVPRDCGCKPCICTVPEVSSVFIFPPKPKDVLTITLTPKVTCVVVDISKDDPEVQFSWFVDDVEVHTAQTQPREEQFNSTFRSVSELPIMHQDWLNGKEFKCRVNSAAFPAPIEKTISKTKGRPKAPQVYTIPPPKEQMAKDKVSLTCMITDFFPEDITVEWQWNGQPAENYKNTQPIMDTDGSYFVYSKLNVQKSNWEAGNTFTCSVLHEGLHNHHTEKSLSHSPGK", "values": [
      {"measurement": "fold drop of specific binding with anti-SMVT siRNA against siLUC", "setting": "[7]", "value": "> 2", "unit": "fold"}
    ]}
  ]
}
